Drawing on patent publication US20180334496A1 (KODIAK SCIENCES, published 2018), this text covers Kd for 14 molecules.

Residue numbers refer to the chain shown, from its start.

Common to all, as to assay: SPR MX96
Experiment [1] addresses T1, human complement factor D purified from serum (human, UniProt P00746 26-253).
T1 construct: serum-purified (CompTech); also called hCFD-Comptech; CFD

The target in experiment [2] is T2, recombinant cynomolgus CFD, His-tagged (cynomolgus).
T2 construct: also called rcyCFD-His; recombinant Cyno-CFD

The target of experiment [3] is T3, recombinant human CFD, His-tagged (human, UniProt P00746 26-253).
T3 construct: also called rhCFD-His

For experiment [4], the target named is T4, recombinant human CFD mutant 1 (R157A, R207A), His-tagged (human, UniProt P00746 26-253).
T4 construct: positions are linear positions in the mature protein; also called rhCFD-mut1-His; Mut1
T4 sequence (P00746 26-253 R182A/R232A limits assumed): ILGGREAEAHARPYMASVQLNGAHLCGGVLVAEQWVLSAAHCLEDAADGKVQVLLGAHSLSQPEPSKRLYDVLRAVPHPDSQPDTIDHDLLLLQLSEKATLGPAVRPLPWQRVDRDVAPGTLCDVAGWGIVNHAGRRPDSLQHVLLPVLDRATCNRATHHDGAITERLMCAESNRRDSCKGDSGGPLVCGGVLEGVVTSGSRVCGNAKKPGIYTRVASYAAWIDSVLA

T3 sequence (P00746 26-253 limits assumed): as the sequence (P00746 26-253 R182A/R232A limits assumed) above, with A157R, A207R counted along it
T1 sequence (P00746 26-253): as the sequence (P00746 26-253 R182A/R232A limits assumed) above, with A157R, A207R counted along it

B1: KCD212 (antibody, V domains shown)
VH: EVHLVESGGDLVKPGGSLKLSCAASGFTFSRYGMSWVRQTPDKRLEWVATISSAGSYTYYPDSVKGRFTISRDNAKNTLFLQMSSLKSEDTAMYYCARPLNYYGTSSFDYWGQGTTLTVSS
VL: QIVLTQSPAIMSASPGEKVTMTCRASSSVSSTYLHWYQQKPGSSPKLWIYSTSNLASGVPPRFSGSGSGTSYSLTISSVEAEDAATYYCQQYDSSPNTFGAGTKLELK
Turning to B1, the Kd worked out at 0.47 nM in experiment [1], 3.8 nM in experiment [2], 0.21 nM in experiment [3] and 0.2 nM in experiment [4].

B2: KCD004 (antibody, V domains shown)
VH: EVQLQQSGAELVRPGSSVKMSCKTSGKTFTSHGINWVKQRPGQGLEWIGYIYIGNGYNEYNEKFKGKATLTSDTSSSTAYMQLSSLTFEDSAIYFCVRKAYGNYGFDDWGQGTTLTVSS
VL: DIQMTQSPTSLSASLGESVSLTCRASQEISGYLNWLQQKPDGSIKRLIYAASTLDSGVPKRFSGSRSGSDYSLTISSLESEDFADYYCLQYANYPFTFGSGTKLEVK
notes: also called OG2063
As to B2, the Kd in experiment [1] came to 0.35 nM; in experiment [2] it was 0.92 nM; in experiment [3] it was 0.24 nM; in experiment [4], 0.14 nM.

B3: KCD205 (antibody, V domains shown)
VH: B2 VH with K27N, F88S
VL: B2 VL with T9S, S18R, N34S, S43T, R66S, E81D, N93S, V106I
Turning to B3, the equilibrium dissociation constant (Kd) stood at 3 nM in experiment [1], 3.3 nM in experiment [2], 1.9 nM in experiment [3] and 1.8 nM in experiment [4].

B4: KCD125 (antibody, V domains shown)
VH: B2 VH with K27N, H32Y, N55T, N58T, F88S, D108Y
VL: B2 VL with T9S, S18R, N34S, S43T, N93S, V106I
Regarding B4, the Kd was found to be 3.8 nM in experiment [1], 4.1 nM in experiment [2], 2.5 nM in experiment [3] and 2.7 nM in experiment [4].

B5: KCD126 (antibody, V domains shown)
VH: B2 VH
VL: B2 VL with Y32N
As for B5, the equilibrium dissociation constant (Kd) is 0.34 nM in experiment [1], 0.93 nM in experiment [2], 0.29 nM in experiment [3] and 0.18 nM in experiment [4].

B6: KCD128 (antibody, V domains shown)
VH: QVQLQQPGAELVRPESSVKLSCKASGYTFTSYWMDWVMQRPGQGLEWIGNIYPSGSETHYNQKFKDKATLTVDKSSTTAYMQLSSLTFEDSAVYYCARSGFIGSRYLYYFDYWGQGTTLTVSS
VL: DIVMTQSHKFMSTSVGDRVTITCKASQDVSNAVAWYQLKPGQSPKLLIYSASYRYTGVPDRFTGSGSGTDFTFTISSVQAADLAVYYCQQHYITPYTFGGGTKLEIK
On to B6, for which the Kd in experiment [1] is 14 nM; in experiment [2], 3.3 nM; in experiment [3], 14 nM; in experiment [4] it was 13 nM.

B7: KCD022 (antibody, V domains shown)
VH: DVQLQESGPDLVKPSQSLSLTCTVTGYSITSGYSWHWIRQFPGNTLEWMGYIHYSGSTNYNPSLESRISFTRDTSKNQFFLQLNSVTTEDTATYYCALHFYGYNLGWYFDVWGAGTTVTVSS
VL: DIVMTQSHKFMSTSIGDRVIITCKASQDVGTTVAWYQQRPGQSPKLLIYWASTRHTAVPDRFTGSGSGTDFTLTISNVQSEDLADYFCQQYTSYPLTFGAGTQLELK
With B7, the Kd was found to be 57 nM in experiment [1], 54 nM in experiment [2], 83 nM in experiment [3] and 110 nM in experiment [4].

B8: KCD137 (antibody, V domains shown)
VH: EVQLVESGGDLVKPGGSLKLSCAASGFTFSGYGMSWVRQIPDKRLEWVAISSRDNSFTYYPDSVKGRFTISRDNAKNTLYLQMSSLKSEDTALYFCTRHPYLPTGGYVMDYWGQGTSVTVSS
VL: B7 VL with I15V, I20S, T32A, A57G, I75V, Q103K
With B8, the Kd stood at 0.5 nM in experiment [1], 5.9 nM in experiment [2], 5.5 nM in experiment [3] and 4.6 nM in experiment [4].

B9: KCD225 (antibody, V domains shown)
VH: QVQLQQSGPELVKPGASVKISCKASGYTFTDYYINWMKQRPGQGLEWIGWIFPGSDSTYYNEKFKGKATLTVDKSSSTAYMLLSSLTSEDSAVYFCARLGYYSHSYYAMDYWGQGTSVTVSS
VL: DIQMTQSPASLSVSTGETVTITCRASENIYSNLAWFQQKQGKSPQLLVYAATNLADGVPSRFSGSGSGTQYSLKITSLQSEDFGSYYCQHFWGTPLTFGAGTKLDLK
Turning to B9, the Kd came to 8.7 nM in experiment [1], 46 nM in experiment [2], 5 nM in experiment [3] and 6.2 nM in experiment [4].

B10: KCD230 (antibody, V domains shown)
VH: QVQLQQPGTELVKPGASVKLPCKASGYTFTSYWMQWVKQRPGQGLEWIGEIDPSDTYINYNQKFKGKATLTVDTSSTTAYMQLSSLTSEDSAVYYCARYTTIMASDYWGQGTTLTVSS
VL: DIQMTQTTSSLSVSLGDRVTISCRASQDITNYLNWYQQKPDGTVKLLIYFTSRLHSGVPSRFSGSGSGTDYSLTISNLEPEDIATYYCQQYSKLPWTFGGGTKLEIK
As for B10, the Kd in experiment [1] came out at 2.5 nM; in experiment [2], 2.7 nM; in experiment [3], 1.6 nM; in experiment [4], 0.88 nM.

B11: KCD066 (antibody, V domains shown)
VH: QVQLQQSAAELARPGASVKMSCKASGYTFTDYTMHWVKQRPGQGLEWIGYINPSGGYTDYNQKFKDKTALTADKSSSTAYMQLSSLTSEDSAVYYCARRRDYWFAYWGQGTLVTVSA
VL: DIVMSQSPSSLAVSVGEKVTMSCKSSQSLLYSGNQKNYLAWYQQKPGQSPKLLIYWASTRESGVPDRFTGSGSGTDFTLTISSVKAEDLAVYYCHQYYSYLTFGAGTKLELK
Turning to B11, the Kd is 2.9 nM in experiment [1], 4 nM in experiment [2], 1.9 nM in experiment [3] and 1.2 nM in experiment [4].

B12: KCD001 (antibody, V domains shown)
VH: EVQLQQSGPELVKPGASVKISCKASDNSFTGYYMHWVKQSHGNILDWIGYIDPYNGVSSYNQKFKGKATLTVDKSSSTAYMEIRSLTSEDSAVYYCASYYGSSPYWYFDVWGTGTTVTVSS
VL: QIVLSQSPAILSASPGEKVTMTCRASSSVSYMHWYQQKPGSSPKPWIYATSNLASGVPARFSGSGSGTSHFLTISRLEAEDAATYFCQQWSSNPYTFGGGTKLEIK
For the molecule B12, the Kd in experiment [1] was 0.22 nM; in experiment [2], 0.63 nM; in experiment [3] it was 0.22 nM; in experiment [4] it was 0.19 nM.

B13: KCD114 (antibody, V domains shown)
VH: EVQLQQSGPELVKPGASVKISCKASGYSFTAYYMNWVKQSPEKSLEWIGDINPSTGGTTYNQNFKAKATLTVDKSSSTAYMHLKSLTSEDSAVYYCATTYYSGNSYVGFAYWGQGTLVTVSA
VL: DIVMTQSHKFMSTSVGDRVSITCKASQDVSTAVAWYQQKPGQSPKLLIFWASTRHTGVPDRFTGSGSGTDYTLTISSVQAEDLALYYCQQHYSTPWTFGGGTKLEIK
For B13, the Kd amounted to 8.1 nM in experiment [1], 8.4 nM in experiment [2], 3.8 nM in experiment [3] and 8.4 nM in experiment [4].

B14: KCD013 (antibody, V domains shown)
VH: EVQLQQSGAELVKPGASVKLSCTASGFKIKDTYMHWVKERPDQGLEWIGRIDPANGNTKYDPKFQGKATITADTSSNTAYLQLSSLTSEDTAVYYCANAMDYWGQGTSVTVSS
VL: QIILTQSPAIMSASPGEKVTMTCSASSSVSNMYWYQQKPGSSPRLLIYDTSNLASGVPVRFSGSGSGASYSLTISRMEAEDAATYYCQQWSSYPWTFGGGTKLEIK
As to B14, the Kd in experiment [1] is 7.3 nM; in experiment [2], 93 nM; in experiment [3], 11 nM; in experiment [4], 19 nM.

The Kd is the concentration at which binding is half-saturated.
